# “And” between values parts separate entries of the source, which are not always exact repeats. Identical values can stand only once. Like-named read-outs stand apart in the source and are kept apart here. Ends that are not written are not given here.
# Legend:
# [1] = system: lymph node cells and Vβ8-44-54 selected T cell line
# [2] = system: T cell lines derived from rats protected from EAE; test: Proliferation of LN cells and T cell lines from rats protected by TCR Vβ8 peptide (Table 12); type: cell-based, rat
# [3] = system: LN cells and T cell lines; test: Proliferation of LN cells and lines from rats protected by transfer of TCR Vβ8 peptide-specific T cells (Table 15); type: cell-based, rat
# Description: ^1 Lymph node (LN) cells were collected 20 days after simultaneous
# ^2 LN cells were tested directly (NL column).
# ^3 T cell lines were selected from these LN cells by culture with TCR
# [4] = system: popliteal LN cells; test: Proliferation of LN cells after EAE induction and TCR peptide treatment (Table 23); type: cell-based, Lewis rats
# Description: The proliferative responses and specificity of T cells in the draining LN (popliteal) of rats treated with TCR Vβ8(39-59) peptide for EAE on day 13 after disease induction were examined (Table 23). On day 0, Lewis rats received an EAE-inducing regimen of GP-BP+CFA SC into their hind footpads. […] On day 20, about 7 days after onset of EAE, popliteal LNs were removed and T cell proliferative activity in response to the indicated antigens or mitogens were tested directly.
# Results are shown as net ^3 Hthymidine incorporation of 5 ×
# [5] = system: peptide-selected T cells; test: Proliferation of peptide-selected T cells after in vivo TCR peptide treatment (Table 24); type: cell-based, Lewis rats
# From the text: LN cells from control rats responded best to Con A, PPD, GPBP and GPBP (72-89), and GPBP (45-89) (which includes the 72-89 sequence and another immunogenic but non-encephalitogenic peptide). […] LN cells from rats treated ID with the TCR peptide esponded similarly to the control cells, with the exception of a reduced response to GPBP (72-89). […] An aliquot of each of the above 3 groups of LN cells was stimulated in culture with either GPBP or with the TCR peptide for 3 days, and the cells expanded in IL-2 for 5 more days. The proliferative responses to the various antigens and mitogens of these selected T cells were examined, as above.
# [6] = system: clone C455-69; test: Proliferation response of clone C455-69 to BP peptides (Table 28); type: cell-based, rat
# Description: Proliferation assays: Proliferation assays were performed in 96-well microtiter plates. 2×10^4 T cells and 10^6 irradiated thymocytes/well were incubated with stimulation medium only, ConA, or antigen at 37C in 7% CO2. The cultures were incubated for 72 h, the last 18 h in the presence of 0.5 Bq ^3 H-Tdr. The cells were harvested onto glass fiber filters and TCR uptake was assessed by liquid scintillation. Mean CPM wre calculated from triplicate wells. The standard deviation from replicate wells varied <10% from the mean values.
# the homologous RtBP sequence. Five μg/ml ConA or 50 μg/ml of each
# [7] = system: EAE; test: Prevention and suppression of EAE by immunization with TCR Vβ8(39-59) (Table 17); type: in vivo, Lewis rats; details: antigen alone, day 0 (no TCR peptide)
# [8] = system: EAE; test: Prevention, suppression and treatment of EAE with TCR Vβ8-39-59 peptide (Table 25); type: in vivo, Lewis rats; details: GP-BP/CFA only
# [9] = system: DTH response; test: Delayed hypersensitivity responses to TCR peptides, ear swelling (Table 26); type: in vivo, Lewis rats
# [10] = system: LNC and T cell lines; test: T cell proliferation after treatment of EAE with TCR Vβ8 39-59/CFA (Table 27); type: cell-based, rats
# Description: Lymphocyte Proliferation: Activation of T cells was measured by ^3 H-Tdy uptake. 500,000 lymph node cells or 20,000 line cells in the presence of 1 million irradiated thymic accessory cells were incubated with culture medium and antigens in microtiter wells for 18 hours prior to the addition of 0.5 μBq labeled thymidine. The cell cultures were harvested onto glass fiber filters and counted by liquid scintillation techniques. Mean CPM were calculated from triplicate cultures. Standard deviations (SD) from replicate cultures varied <10% from the mean value.
# ^a Treated rats were injected s.q. with 50 μg TCR Vβ839-59
# ^b LW cells collected after the untreated group recovered from EAE
# [11] = system: clones C372-89 and C455-69; test: Coculture of clones C372-89 and C455-69, proliferation (Table 31); type: cell-based, rat
# Description: 50 μg of antigen was added to 10,000 cells of each clone stimulated in […]
# [12] = 50 μg/ml peptide (5 μg/ml ConA), 20,000 clone C455-69 cells, 3 days
# [13] = 1st value column (head not given; LN cells of protected rats)
# [14] = 2nd value column (head not given, TCR Vβ8(39-59)-selected line)
# [15] = 4th value column (head not given; mixed TCR- and BP-specific T cells)
# [16] = A. TCR Vβ8 peptide-specific T cell transfer
# [17] = Treated rats (TCR Vβ8 39-59/CFA at onset), LNC
# [18] = Untreated rats (GPBP/CFA only), LNC
# [19] = 50 μg antigen, 10,000 cells, 3 days
molecule,measurement,setting,value
"LRLIHYSYDVN [Vβ8-44-54, LRLIHYSYDVN]",inhibition of T cell response,[1]; 72 h,76%
"Concanavalin A [Con A, reference compound]",T Cell Proliferation,[2],99 and 96 and 80 and 123
same,"Proliferation, TCR Peptide Selected Line",[3],46
same,T Cell Proliferation,[4],85 and 78 and 146
same,Proliferative response,[5],76 and 52 and 68 and 95
same,Response CPM/1000 ± S.D.,[6],229 ± 15
same,Response of Lymph Node Cells,[1],293 ± 39
same,"Response of T Cell Line, percent (in parentheses)",[1],88% and 93% and 106%
APKRGSGKDSH HAARTTHYG (APKRGSGKDSHHAARTTHYG) [50-69],Response CPM/1000 ± S.D.,[6]; [12],277 ± 14 CPM/1000
SGKDSH HATRTTHYGSLPQK [55-74 modified],Response CPM/1000 ± S.D.,[6]; [12],150 ± 15 CPM/1000
"APKRGSGKDSH HAARTTH (APKRGSGKDSHHAARTTH) [43-67, Gp-BP fragment 43-67 (printed from residue 50)]",Response CPM/1000 ± S.D.,[6]; [12],249 ± 12 CPM/1000
"GPBP: guinea pig basic protein, encephalitogen (protein, UniProt P25188 1-167, looked up) Myelin basic protein: ASQKRPSQRHGSKYLATASTMDHARHGFLPRHRDTGILDSIGRFFGSDRAAPKRGSGKDSHHAARTTHYGSLPQKSQRSQDENPVVHFFKNIVTPRTPPPSQGKGRGLSLSRFSWGAEGQKPGFGYGGRADYKSKGFKGAHDAQGTLSKIFKLGGRDSRSGSPMARR",T Cell Proliferation,[2]; [13],16 cpm × 10^-3
same,T Cell Proliferation,[2]; [14],3 cpm × 10^-3
same,T Cell Proliferation,[2]; [15],102 cpm × 10^-3
same,T Cell Proliferation,[2]; GPBP-selected line,93 cpm × 10^-3
same,"Proliferation, GPBP Selected Line",[3]; [16],16 cpm × 10^-3
same,"Proliferation, TCR Peptide Selected Line",[3]; [16],0 cpm × 10^-3
same,"Proliferation, LN","[3]; A. rats given 3 × 10^7 TCR Vβ8 peptide-specific T cells + GPBP/CFA, LN cells day 20",80 cpm × 10^-3
same,"Proliferation, GPBP Selected Line",[3]; B. Saline + GPBP/CFA,65 cpm × 10^-3
same,"Proliferation, LN",[3]; B. Saline + GPBP/CFA,32 cpm × 10^-3
same,Clinical Score,[7],3.1 ± 0.6
same,T Cell Proliferation,[4]; LN cells day 20 of Control rats (saline day 13),49 cpm × 10^-3
same,T Cell Proliferation,[4]; LN cells of rats given TCR Vβ 8(39-59) 50 μg ID day 13,44 cpm × 10^-3
same,T Cell Proliferation,[4]; LN cells of rats given TCR Vβ 8(39-59) 100 μg SC (in CFA) day 13,50 cpm × 10^-3
same,Duration,[8],6.6 ± 0.9 days
same,EAE/TOTAL,[8],26/26
same,Max Clin. Signs,[8],3.4 ± 0.2
same,Onset,[8],12
same,48 Hour DTH Response,"[9]; GP-BP/CFA immunized rats, ear test Day 12 (EAE onset)",35 ± 5
same,48 Hour DTH Response,"[9]; Normal or saline/CFA rats, ear test Day 12",5 ± 3
same,net proliferation of reactive cells,[10]; GP-MBP-selected line from TCR peptide-treated rats,"12,000 CPM"
same,net proliferation of reactive cells,[10]; GP-MBP-selected line from untreated EAE-recovered rats,"84,000 CPM"
same,Proliferation,[10]; [17],50 ± 7 CPM/1000
same,Proliferation,"[10]; Treated rats, line BP/1st",29 ± 6 CPM/1000
same,Proliferation,"[10]; Treated rats, line Vβ8/1st",6 ± 1 CPM/1000
same,Proliferation,[10]; [18],49 ± 5 CPM/1000
same,Proliferation,"[10]; Untreated rats, line BP/1st",99 ± 9 CPM/1000
same,Proliferation,"[10]; Untreated rats, line Vβ8/1st",23 ± 2 CPM/1000
same,Proliferation,"[10]; Untreated rats, line Vβ14/1st",11 ± 1 CPM/1000
same,Response CPM/1000 ± S.D.,[6]; [12],203 ± 7 CPM/1000
same,"Proliferation, C372-89",[11]; [19],40 ± 3 CPM/1000
same,"Proliferation, C455-69",[11]; [19],50 ± 9 CPM/1000
same,"Proliferation, C372-89 + C455-69","[11]; coculture, 10,000 cells of each clone",91 ± 12 CPM/1000
"Rat BP: rat myelin basic protein (protein, UniProt P02688 2-195, looked up) Myelin basic protein: ASQKRPSQRHGSKYLATASTMDHARHGFLPRHRDTGILDSIGRFFSGDRGAPKRGSGKVPWLKQSRSPLPSHARSRPGLCHMYKDSHTRTTHYGSLPQKSQRTQDENPVVHFFKNIVTPRTPPPSQGKGRGLSLSRFSWGAEGQKPGFGYGGRASDYKSAHKGFKGAYDAQGTLSKIFKLGGRDSRSGSPMARR",T Cell Proliferation,[2]; [13],11 cpm × 10^-3
same,T Cell Proliferation,[2]; [14],1 cpm × 10^-3
same,T Cell Proliferation,[2]; [15],9 cpm × 10^-3
same,T Cell Proliferation,[2]; GPBP-selected line,9 cpm × 10^-3
same,Proliferative response,"[5]; day 13 inj. Control, selection with GPBP",46
same,Proliferative response,"[5]; day 13 inj. TCR Vβ 8(39-59) + CFA, selection with GPBP",14
same,Proliferative response,"[5]; day 13 inj. TCR Vβ 8(39-59) + CFA, selection with Vβ 8(39-59)",4
same,Proliferative response,"[5]; day 13 inj. TCR Vβ 8(39-59) ID, selection with CPBP (so in the source)",36
same,Proliferation,[10]; [17],49 ± 2 CPM/1000
same,Proliferation,"[10]; Treated rats, line BP/1st",14 ± 2 CPM/1000
same,Proliferation,"[10]; Treated rats, line Vβ8/1st",4 ± 1 CPM/1000
same,Proliferation,[10]; [18],40 ± 2 CPM/1000
same,Proliferation,"[10]; Untreated rats, line BP/1st",46 ± 3 CPM/1000
same,Proliferation,"[10]; Untreated rats, line Vβ8/1st",11 ± 4 CPM/1000
same,Response CPM/1000 ± S.D.,[6]; [12],0.2 ± 0.1 CPM/1000

# Source: US5614192A, “T cell receptor peptides as therapeutics for immune-related disease” (Connective Therapeutics, Inc., priority 1993, dated 1997)
